Series [1] deals with the molecule itself. As to the kind of experiment: SEC-MALS; KAP1 constructs alone, 10 to 40 μM; Superose 6 10/300 GL; 20 mM Hepes pH 7.5, 300 mM NaCl, 2 mM TCEP.
Another series deals with Atto 532–labeled HP1α (UniProt P45973 1-191, Atto 532 on a tripeptide (Thz-G2-C3-CONH2, thiazolidine opened) joined to the C terminus; C-terminal amide). Put plainly: cell-based or functional assay.
Atto 532–labeled HP1α, sequence (P45973 whole entry): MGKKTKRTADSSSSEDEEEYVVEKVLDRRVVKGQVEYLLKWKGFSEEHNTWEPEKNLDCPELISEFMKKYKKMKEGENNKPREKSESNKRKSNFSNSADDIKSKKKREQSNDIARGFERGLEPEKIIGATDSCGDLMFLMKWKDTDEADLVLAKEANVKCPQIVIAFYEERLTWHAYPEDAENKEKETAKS

B1: ΔKAP1 (23–812) (domain or fragment, human, UniProt Q13263 23-812, looked up)
chain: GEGSAGGEKRSTAPSAAASASASAAASSPAGGGAEALELLEHCGVCRERLRPEREPRLLPCLHSACSACLGPAAPAAANSSGDGGAAGDGTVVDCPVCKQQCFSKDIVENYFMRDSGSKAATDAQDANQCCTSCEDNAPATSYCVECSEPLCETCVEAHQRVKYTKDHTVRSTGPAKSRDGERTVYCNVHKHEPLVLFCESCDTLTCRDCQLNAHKDHQYQFLEDAVRNQRKLLASLVKRLGDKHATLQKSTKEVRSSIRQVSDVQKRVQVDVKMAILQIMKELNKRGRVLVNDAQKVTEGQQERLERQHWTMTKIQKHQEHILRFASWALESDNNTALLLSKKLIYFQLHRALKMIVDPVEPHGEMKFQWDLNAWTKSAEAFGKIVAERPGTNSTGPAPMAPPRAPGPLSKQGSGSSQPMEVQEGYGFGSGDDPYSSAEPHVSGVKRSRSGEGEVSGLMRKVPRVSLERLDLDLTADSQPPVFKVFPGSTTEDYNLIVIERGAAAAATGQPGTAPAGTPGAPPLAGMAIVKEEETEAAIGAPPTATEGPETKPVLMALAEGPGAEGPRLASPSGSTSSGLEVVAPEGTSAPGGGPGTLDDSATICRVCQKPGDLVMCNQCEFCFHLDCHLPALQDVPGEEWSCSLCHVLPDLKEEDGSLSLDGADSTGVVAKLSPANQRKCERVLLALFCHEPCRPLHQLATDSTFSLDQPGGTLDLTLIRARLQEKLSPPYSSPQEFAQDVGRMFKQFNKLTEDKADVQSIIGLQRFFETRMNEAFGDTKFSAVLVEP
notes: His6 tag and TEV site precede the protein; no cleavage step is described; source: E. coli Rosetta (DE3) / Rosetta (DE3) pLys, purified (HisTrap, desalting, SEC)
In the case of B1, the “stoichiometry N” value in series [1] was determined as 2.

B2: KAP1 full-length protein (KAP1 FL, 1–835) (natural protein, human, UniProt Q13263 1-835, looked up)
chain: MAASAAAASAAAASAASGSPGPGEGSAGGEKRSTAPSAAASASASAAASSPAGGGAEALELLEHCGVCRERLRPEREPRLLPCLHSACSACLGPAAPAAANSSGDGGAAGDGTVVDCPVCKQQCFSKDIVENYFMRDSGSKAATDAQDANQCCTSCEDNAPATSYCVECSEPLCETCVEAHQRVKYTKDHTVRSTGPAKSRDGERTVYCNVHKHEPLVLFCESCDTLTCRDCQLNAHKDHQYQFLEDAVRNQRKLLASLVKRLGDKHATLQKSTKEVRSSIRQVSDVQKRVQVDVKMAILQIMKELNKRGRVLVNDAQKVTEGQQERLERQHWTMTKIQKHQEHILRFASWALESDNNTALLLSKKLIYFQLHRALKMIVDPVEPHGEMKFQWDLNAWTKSAEAFGKIVAERPGTNSTGPAPMAPPRAPGPLSKQGSGSSQPMEVQEGYGFGSGDDPYSSAEPHVSGVKRSRSGEGEVSGLMRKVPRVSLERLDLDLTADSQPPVFKVFPGSTTEDYNLIVIERGAAAAATGQPGTAPAGTPGAPPLAGMAIVKEEETEAAIGAPPTATEGPETKPVLMALAEGPGAEGPRLASPSGSTSSGLEVVAPEGTSAPGGGPGTLDDSATICRVCQKPGDLVMCNQCEFCFHLDCHLPALQDVPGEEWSCSLCHVLPDLKEEDGSLSLDGADSTGVVAKLSPANQRKCERVLLALFCHEPCRPLHQLATDSTFSLDQPGGTLDLTLIRARLQEKLSPPYSSPQEFAQDVGRMFKQFNKLTEDKADVQSIIGLQRFFETRMNEAFGDTKFSAVLVEPPPMSLPGAGLSSQELSGGPGDGP
notes: KAP1 (TRIM28, TIF1β), human, residues 1–835, complete full-length protein; His6 tag followed by a TEV protease cleavage site precedes the protein (pETDuet-1); no cleavage step is described; also called TIF1β; TRIM28; source: E. coli Rosetta (DE3) / Rosetta (DE3) pLys, purified (HisTrap, desalting, SEC)
For B2, the “slow residence time τ_(off,2) of HP1α on H3K9me3 chromatin fibers (smTIRF), KAP1 50 to 400 nM” value in the series with Atto 532–labeled HP1α was around 3 fold. The “stoichiometry N” value in series [1] came to 2.

B3: KAP1 RBCC domain (RBCC, 23–418) (domain or fragment, human, UniProt Q13263 23-418, looked up)
chain: GEGSAGGEKRSTAPSAAASASASAAASSPAGGGAEALELLEHCGVCRERLRPEREPRLLPCLHSACSACLGPAAPAAANSSGDGGAAGDGTVVDCPVCKQQCFSKDIVENYFMRDSGSKAATDAQDANQCCTSCEDNAPATSYCVECSEPLCETCVEAHQRVKYTKDHTVRSTGPAKSRDGERTVYCNVHKHEPLVLFCESCDTLTCRDCQLNAHKDHQYQFLEDAVRNQRKLLASLVKRLGDKHATLQKSTKEVRSSIRQVSDVQKRVQVDVKMAILQIMKELNKRGRVLVNDAQKVTEGQQERLERQHWTMTKIQKHQEHILRFASWALESDNNTALLLSKKLIYFQLHRALKMIVDPVEPHGEMKFQWDLNAWTKSAEAFGKIVAERPGTNST
notes: KAP1 (TRIM28), human, RBCC domain (RING, B-box 1, B-box 2, coiled coil), residues 23–418; His6 tag and TEV site precede the protein; no cleavage step is described; also called N-terminal RBCC domain of KAP1; source: E. coli Rosetta (DE3) / Rosetta (DE3) pLys, purified (HisTrap, desalting, SEC)
Take B3: in series [1], the “stoichiometry N” value is 2.

Values taken from article PMC6701479, “KAP1 is an antiparallel dimer with a functional asymmetry” (Life Science Alliance, 2019).
